Source: PMC6588359

Columns and labels:
amyloid-β40 (Aβ40) [1] = experiment: native MS; native nano-ESI-IMS-MS, positive ionization; Aβ40 alone or 1:1 mol/mol with Aβ_(16–22); samples incubated 5 min at 37°C without agitation, analysed immediately following mixing
amyloid-β40 (Aβ40) [2] = target: amyloid-β40 (Aβ40)

In the case of Aβ_(16–22), the “percent heterodimers by total ion count” value (amyloid-β40 (Aβ40) [1]) was 1.0 ± 0.5%.
Substance Aβ_(16–22) (peptide) has a ThT fluorescence: average t1/2 of Aβ40 aggregation with sonicated Aβ (16–22) fibrils (amyloid-β40 (Aβ40) [2]) of 6.2 h and a ThT fluorescence: average t1/2 of Aβ40 aggregation with unfragmented (unsonicated) Aβ (16–22) fibrils (amyloid-β40 (Aβ40) [2]) of 7.2 h.
Substance amyloid-β40 (Aβ40) (peptide) has a stoichiometry N (amyloid-β40 (Aβ40) [1]) of 1.
